# B1: HDV Ribozyme (parent)
# chain: GGCCGGCAUGGUCCCAGCCUCCUCGCUGGCGCCGGCUGGGCAACAUUCCGAGGGGACCGUCCCCUCGGUAAUGGCGAAUGGGACCCA
# Variants of: B1
# Test: self-cleavage, relative activity (ratio to wild type); higher = more cleavage; co-transcriptional
row,Variant,self-cleavage
1,GGCCGGCAUGGUCCCAGCCUCCUAGCUGGCGCCGGCUGGGCAACAUUCCGAGGGGACCGUCCGCUCGGUAAUGGCGAAUGGGACCCA [C24A C63G],0.723
2,GGCCGGCAUGGUCCCAGCCUCCUCGCUGGCGCCGGCUGGGCAACUUUCCGAGGGGACCGUCCCCUCGGUAAUGACGAAUGGGACCCA [A45U G74A],0.513
3,GGCCGGCAUGCUCCCAGCCUCCUCGCUGGCGCCGGCUGGGCAACACUCCGAGGGGACCGUCCCCUCGGUAAUGGCGAAUGGGACCCA [G11C U46C],0.123
4,GGCCGGCAUGGUCCCAGCCUCCUCGCUGGCGCCGGCUGGGCGACAUUCCGAGGAGACCGUCCCCUCGGUAAUGGCGAAUGGGACCCA [A42G G54A],0.567
5,GGCCGGCAUGGUCCCAGCCUCCUCGCUGGCGCCGGCUGGGCAACAUUCCGAGGGGACCGUCCCCUCGGUAAUGGCAAAUGGGACGCA [G76A C85G],0.962
6,GGCCGGCAUGGUCCCAGCCUCCUCGCUGGCGCCGGCUGGGCGACAUUCCGAGGGGACCGUCACCUCGGUAAUGGCGAAUGGGACCCA [A42G C62A],0.35
7,GGCCGGCAUGGUCCCAGCAUCCUCGCUGGCGCCGGCUGGGCAACAUUCCGAGCGGACCGUCCCCUCGGUAAUGGCGAAUGGGACCCA [C19A G53C],0.23
8,CGCCGGCAGGGUCCCAGCCUCCUCGCUGGCGCCGGCUGGGCAACAUUCCGAGGGGACCGUCCCCUCGGUAAUGGCGAAUGGGACCCA [G1C U9G],0.104
9,GGCCGGCAUGGUACCAGCCUCCUCGCUGGCGCCGGCUGGGCAACAUUCCGAGGGCACCGUCCCCUCGGUAAUGGCGAAUGGGACCCA [C13A G55C],0.143
10,GGCCGGCAUGGUCCCAGCCUCCUCGCUGGCGACGGCUGGGCAACUUUCCGAGGGGACCGUCCCCUCGGUAAUGGCGAAUGGGACCCA [C32A A45U],0.151
11,GGCCGGCAUGGUCACAGCCUCCUCGCUGGCGCCGGCUAGGCAACAUUCCGAGGGGACCGUCCCCUCGGUAAUGGCGAAUGGGACCCA [C14A G38A],0
12,GGCCGGCAUGGUCCCAGCCUCCUCGCUGGCGCCGGCUGGGCAACAUUCCGAGGGGAACGUCCCCUCGGUAAUGGCGAAUGGAACCCA [C57A G82A],0.554
13,GCCCGGCAUGGUCCCAGCCUCCUCGCUGGCGCCGGCUGGGCAACAUUCCGAGGGGACCGUCCCCUCGGUAAUGGCAAAUGGGACCCA [G2C G76A],0.13
14,GGCCGGCAUGGUCCCAGCCUCCUCGCUGGCGCCGGCUGGGCAACAUUCCGAGUGGACCCUCCCCUCGGUAAUGGCGAAUGGGACCCA [G53U G59C],1.23
15,GGCCGGCAUGGUCCCAGCCUCCUCGCUGGCGCCGGAUGGGCAACAUUCCGAGGGGACCGUCCCCUCGGUAAUGGCGAAUGGGAACCA [C36A C84A],0.192
16,GGCCGGCAUGGUCCCAGCCUCAUCGCUGGCGCCGGCUGGGCAACAUUCCGAGGGGACCGUCCCUUCGGUAAUGGCGAAUGGGACCCA [C22A C64U],0.32
17,GGCCGGCAUGGCCCCAGCCUACUCGCUGGCGCCGGCUGGGCAACAUUCCGAGGGGACCGUCCCCUCGGUAAUGGCGAAUGGGACCCA [U12C C21A],0.0573
18,GGCCGGCAUGGUCCCAGCCUCCUCGCUGGCGCCGGCUGGGCAACAUUCCGAGGGGACCGACCCCUCGUUAAUGGCGAAUGGGACCCA [U60A G68U],1.11
19,GGCCGGCAUGGUCCCUGCCUCCUCGCUGGCGCCGGCUGGGCAACAUUCCGAGGGGACCUUCCCCUCGGUAAUGGCGAAUGGGACCCA [A16U G59U],0.966
20,GGCCGGCAUGGUCCCAGCCUCCUCGCUGGCGCCGGCUGGGCCACAUUCCGAGGGGACCGUCCCCUCGGUAAUGGCGAUUGGGACCCA [A42C A78U],0.0449
21,GGGCGGCAUGGUCCCAGCCUCCUCGCUGGCGCCGGCUGGGCAACAUUCCGAGGGGACCGUCCCCUCGGUUAUGGCGAAUGGGACCCA [C3G A70U],0.636
22,GGCCGGCAUGGUCCCAGCCUCCUCGCUGGCGCCGGCUGAGCAACAUUCCGAGGGGACUGUCCCCUCGGUAAUGGCGAAUGGGACCCA [G39A C58U],0.443

row,Variant,self-cleavage
1,GCCCGGCAUGGUCCCAGCCUCCUCGCUGGCGCCGGCUGGGCAACAUUCCGAGGGGACCGUCCACUCGGUAAUGGCGAAUGGGACCCA [G2C C63A],0.0213
2,GGCCGGCAUGGUCCCAGCCUCGUCGCUGGCGCCGGCUGGGCAACAUUCCGAGGGGACCGUCACCUCGGUAAUGGCGAAUGGGACCCA [C22G C62A],0.106
3,GGCCGGCAUGGUCCCAGCCUCCUGGCUGGCGCCGGCUGGGCAACAUUCCGAGGGGACCGUCCCCUCGGUAAUGGCGAAUGGGUCCCA [C24G A83U],0.141
4,GUCCGGCAUGGUCCCAGCCUCCUCGCUGGCGCCGGCUGGGCAACAUUCCGAGGGGACCGUCCCCUCGGUAAUGGCGAAUGGGACCAA [G2U C86A],0.152
5,CGCCGGCAUGGUCCCAGCCUCCUCGCUGGCGCCGGCUGGGCAACAUUCCGAGGGGACCGUCCCCUCUGUAAUGGCGAAUGGGACCCA [G1C G67U],0.0739
6,GGCCGGCAUGGUCCCAGCCUCCUCGCUGGCGCCUGCUGGGCAACGUUCCGAGGGGACCGUCCCCUCGGUAAUGGCGAAUGGGACCCA [G34U A45G],0.0652
7,GGCCGGCAUGAUCCCAGCCGCCUCGCUGGCGCCGGCUGGGCAACAUUCCGAGGGGACCGUCCCCUCGGUAAUGGCGAAUGGGACCCA [G11A U20G],0.0326
8,GGCCGGCAUGGUCCCAGCCUCCUCGCUGGCGCCGGCUGCGCAACAUUCCGAGGGGACCGUCCCCUCGGUAAUGGCGAAUGCGACCCA [G39C G81C],0.089
9,GGCCGGCAUGGUCCCAGCCUCCUCGCUGUCGCCGGCUGUGCAACAUUCCGAGGGGACCGUCCCCUCGGUAAUGGCGAAUGGGACCCA [G29U G39U],0.111
10,GGCCGGCAUGGUCCCAGCGUCCUCGCUGGCGCCGGCUGGGCAACAUUCCGAGGGGACCGUCCCCUCGGUAAUGGCGUAUGGGACCCA [C19G A77U],0.0437
11,GGCCGGCAUGGUCCCAGCCUCCUCGCUUGCGCCGGCUGGGCAACAUUCCGAGGGGACCGUCACCUCGGUAAUGGCGAAUGGGACCCA [G28U C62A],0.154
12,GGCCGGCAUGGUCCCAGCCUCCUCGCUGGCGCCGGCUGGGCAACAUUCCGAGGGGACCUUCCCCUCGGUAAUGGCGAAUGGGACUCA [G59U C85U],0.935
13,GGCCGGCAUGGUCCCAGCCUCCUCGCUGGCACCGGCUGGGCAACUUUCCGAGGGGACCGUCCCCUCGGUAAUGGCGAAUGGGACCCA [G31A A45U],0.185
14,GGCCGGCAUGGUCCCAGGCUCCUCGCUGGCGUCGGCUGGGCAACAUUCCGAGGGGACCGUCCCCUCGGUAAUGGCGAAUGGGACCCA [C18G C32U],0.172
15,GGCCGGCAUGGUCCCAGCCUCCUCGCUGGCGCCGGCUGGGCAACAUUCCGAGUGGACCGUCCCCUCGGUAGUGGCGAAUGGGACCCA [G53U A71G],0.843
16,GGCCGGCAUGGUACCAGCCUCCUCGCUGGCGCCGGCUGGGCAACAUUCCGAGGGGACCGUCCCCUCGGUAAUUGCGAAUGGGACCCA [C13A G73U],0.0615
17,GGCCGGCAUGGUCCCCGCCUCCUCGCUGGCGCCGGCUGGGCAAGAUUCCGAGGGGACCGUCCCCUCGGUAAUGGCGAAUGGGACCCA [A16C C44G],0.317
18,GGCCGGCAUGGUCCCAGCCUCCUCGCUGGCGCCGGCUGGGCAACAUUCCGAGGGGAACGUCCCCUCGGUGAUGGCGAAUGGGACCCA [C57A A70G],0.852
19,GGCCGGCAUGGUCCCAGCCUCCUCGCUGGCGCCGGCUGGACAACAUUCCGAGGGGACCGUCCCCUCGGUAAUGGCGAAUGGGACCCG [G40A A87G],0.959
20,GGCCGGCAUGGUCCCAGCCUCCUCGCUGGCGUCGGCUGGGCAACAUUCCGGGGGGACCGUCCCCUCGGUAAUGGCGAAUGGGACCCA [C32U A51G],0.92
21,GGCCGGCAUGGUCCAAGCCUCCUCGCUGGCGCCGGCUGGGCAACAUUUCGAGGGGACCGUCCCCUCGGUAAUGGCGAAUGGGACCCA [C15A C48U],0.54
22,GGCCGGCAUGGUCCCAUCCUCCUCGCUGGCGCCGGCUGGGCAACAUUCGGAGGGGACCGUCCCCUCGGUAAUGGCGAAUGGGACCCA [G17U C49G],0.356

row,Variant,self-cleavage
1,GGCGGGCAUGGUCCCAGCCUCCUCGCUGGCGCCGGCUGGGCAACAUUCCGAGGGCACCGUCCCCUCGGUAAUGGCGAAUGGGACCCA [C4G G55C],0.185
2,GGCCGGCAUGGUCCCAGCCUCCUCGCUGGCGCCGGCUGGGCAACAUUCCGAGGGGACCGUCCCCUCGGUUAUGGCGAAUGAGACCCA [A70U G81A],0.332
3,GGCCGGCAUGGUCCCAGCCUCCUCGCUGGCGCCCGCUGGGCAACAUUCCGAGGGGACCGUCCCCUCGGUAAUGGCGAAUGGGACCCG [G34C A87G],0.089
4,GGCCGGCGUGGUCCCAGCCUCCUCGCUGGCGCCGGCUGGGCAACAUUACGAGGGGACCGUCCCCUCGGUAAUGGCGAAUGGGACCCA [A8G C48A],1.07
5,GGCCGGCAUGGCCCCAGCCUCUUCGCUGGCGCCGGCUGGGCAACAUUCCGAGGGGACCGUCCCCUCGGUAAUGGCGAAUGGGACCCA [U12C C22U],0.231
6,GGCCGGUAUGGUCCCAGCCUCGUCGCUGGCGCCGGCUGGGCAACAUUCCGAGGGGACCGUCCCCUCGGUAAUGGCGAAUGGGACCCA [C7U C22G],0.0678
7,GGCCGGCAUGGUCCCAGCCUCGUCGCUGGCGCCGGCUGGGCAACAUUCCGAGGGGACCGUCCCCUGGGUAAUGGCGAAUGGGACCCA [C22G C66G],0.0845
8,GGCCGGCAUGGUCCCAACCUCCUCGCUGGCGCCGGCUGGGCAACAUUCCGAGGGGACCGUCCCCUCGGUAAUGGCGAACGGGACCCA [G17A U79C],0.514
9,GGCCGGCAUGGUCCCAGCCUCCUCGCUGGCGCCGGCUGGGCAACAUUCCGAGGGGACCGUCCACUCGUUAAUGGCGAAUGGGACCCA [C63A G68U],0.764
10,GGCCGGCAUGAUCCCAGCCUCCUCGCUGGCGCAGGCUGGGCAACAUUCCGAGGGGACCGUCCCCUCGGUAAUGGCGAAUGGGACCCA [G11A C33A],0.151
11,GGCCGGCAUCGUCCCAGCCUCCUCGCUGGCGCCGGCUGGGCAACAUUCCGAGGGGACCGUCCCCUAGGUAAUGGCGAAUGGGACCCA [G10C C66A],0.848
12,GGCCGGCAUGGUCCCAGACUCCUCGCUGGCGCCGGCUGGGCAACAUUCCGUGGGGACCGUCCCCUCGGUAAUGGCGAAUGGGACCCA [C18A A51U],0.0378
13,GGCCGGCAUGGUCCCAGCCUCCUCGCUGGCGCCGGCUGGGCAACAUUCCGAGGGGACCGUCCACUGGGUAAUGGCGAAUGGGACCCA [C63A C66G],0.494
14,GGCCGGCAUGGUCCCAGCCUCCUCGCUGGCGCCGGCUGGGCAACACUCCGAGGGGACCGUCCCCUCGGUAAUGUCGAAUGGGACCCA [U46C G74U],0.554
15,GGCCGACAUGGUCCCAGCCUCCUCGCUGGCGCCGGCUGGGCAAAAUUCCGAGGGGACCGUCCCCUCGGUAAUGGCGAAUGGGACCCA [G6A C44A],0.201
16,GGCCGGCAUGGUCCCAGGCUCCUCGCUGGCGCCGGCUGGGCAACAUUCCGCGGGGACCGUCCCCUCGGUAAUGGCGAAUGGGACCCA [C18G A51C],0.208
17,GGCCGGCAUGGUCCCACCCUCCUCGCUGGCGCCGGCUGGGCUACAUUCCGAGGGGACCGUCCCCUCGGUAAUGGCGAAUGGGACCCA [G17C A42U],0.158
18,GGCCGGCAUGGUCCCAGCCUCCUCGCUGGCGCCGGCUGGGCAACACUCCGAGGGGACCGUCCCCUCGGUAAUGGGGAAUGGGACCCA [U46C C75G],0.469
19,GGCCGGCAUGGUCCCAGCCUCCUCGCUGGCGCCGGCUGGGCAACAUUCCGCGGGGACCGUCCCCUCGGUAAUGGCGAAUGGCACCCA [A51C G82C],0.534
20,GGCCGGCAUGGUCCCAGCCUCCUCGCUGGCGCCGGCUGGGCAACAUUCCGAGGGGACCGUCCCCUCGGUAAUGGCGAGUGGGACCAA [A78G C86A],0.727

# — the RNAGym collection of RNA variant scans (doi:10.7554/elife.80360)
